# Laboratory results reported in publication PMC5139991, “SEC-SANS: size exclusion chromatography combined in situ with small-angle neutron scattering1” (Journal of Applied Crystallography, 2016).
# Target: the molecule itself
# Experiment: AUC; ultracentrifugation of Sir2a; no details given (to be detailed in a later publication)
protein,measurement,value
"Plasmodium falciparum Sir2a (enzyme, UniProt Q8IE47 1-273, looked up, Sir2a of Plasmodium falciparum, codon-optimized gene PF3D7_1328800 cloned into pET-28a; printed size 34 kDa; Protonated protein; The His tag is inferred from pET-28a and the TALON purification; removal of the tag is not mentioned; source: E. coli BL21 DE3, purified (HiTrap TALON, gel filtration)) MGNLMISFLKKDTQSITLEELAKIIKKCKHVVALTGSGTSAESNIPSFRGSSNSIWSKYDPRIYGTIWGFWKYPEKIWEVIRDISSDYEIEINNGHVALSTLESLGYLKSVVTQNVDGLHEASGNTKVISLHGNVFEAVCCTCNKIVKLNKIMLQKTSHFMHQLPPECPCGGIFKPNIILFGEVVSSDLLKEAEEEIAKCDLLLVIGTSSTVSTATNLCHFACKKKKKIVEINISKTYITNKMSDYHVCAKFSELTKVANILKGSSEKNKKIM",stoichiometry N,3
